This passage reports Kd results from publication PMC10742460, “Lambda CI Binding to Related Phage Operator Sequences Validates Alignment Algorithm and Highlights the Importance of Overlooked Bonds”.

B1: SOR1 (Stx2I OR1) (dsDNA)
DNA 1: GGTTATTATGGTTTCAGTTCAACCATAATGCAAGTGC
DNA 2: GCACTTGCATTATGGTTGAACTGAAACCATAATAACC
B2: SOL2 (Stx2I OL2) (dsDNA)
DNA 1: GGTTATTATGGTGTAATATTTTCTTACATGCAAGTGC
DNA 2: GCACTTGCATGTAAGAAAATATTACACCATAATAACC
B3: LOL3 (lambda OL3) (dsDNA)
DNA 1: GGTTATTATGGTATCACCGCAGATGGTTTGCAAGTGC
DNA 2: GCACTTGCAAACCATCTGCGGTGATACCATAATAACC
B4: LOR1 (lambda OR1) (dsDNA)
DNA 1: GGTTATTATGGTACCTCTGGCGGTGATATGCAAGTGC
DNA 2: GCACTTGCATATCACCGCCAGAGGTACCATAATAACC
B5: SOR2 (Stx2I OR2) (dsDNA)
DNA 1: GGTTATTATGGATGAGTACGATACTAAATGCAAGTGC
DNA 2: GCACTTGCATTTAGTATCGTACTCATCCATAATAACC
B6: VOR2 (VT2-SA OR2) (dsDNA)
DNA 1: GGTTATTATGGATGCACAATGTGTATTTTGCAAGTGC
DNA 2: GCACTTGCAAAATACACATTGTGCATCCATAATAACC
B7: LOR2 (lambda OR2) (dsDNA)
DNA 1: GGTTATTATGGTAACACCGTGCGTGTTGTGCAAGTGC
DNA 2: GCACTTGCACAACACGCACGGTGTTACCATAATAACC
B8: VOR3 (VT2-SA OR3) (dsDNA)
DNA 1: GGTTATTATGGTATTACGCTCTGTACTGTGCAAGTGC
DNA 2: GCACTTGCACAGTACAGAGCGTAATACCATAATAACC
B9: VOL1 (VT2-SA OL1) (dsDNA)
DNA 1: GGTTATTATGGTAGTACGATATGTACTTTGCAAGTGC
DNA 2: GCACTTGCAAAGTACATATCGTACTACCATAATAACC
B10: SOL1 (Stx2I OL1) (dsDNA)
DNA 1: GGTTATTATGGCAATGATGATTTCATGCTGCAAGTGC
DNA 2: GCACTTGCAGCATGAAATCATCATTGCCATAATAACC
B11: VOL3 (VT2-SA OL3) (dsDNA)
DNA 1: GGTTATTATGGTACAACGCTTTGTATTTTGCAAGTGC
DNA 2: GCACTTGCAAAATACAAAGCGTTGTACCATAATAACC
B12: VOL2 (VT2-SA OL2) (dsDNA)
DNA 1: GGTTATTATGGCAATACAATTTGTTCTATGCAAGTGC
DNA 2: GCACTTGCATAGAACAAATTGTATTGCCATAATAACC
B13: SOL3 (Stx2I OL3) (dsDNA)
DNA 1: GGTTATTATGGGCTTCTTGAATAACAGCTGCAAGTGC
DNA 2: GCACTTGCAGCTGTTATTCAAGAAGCCCATAATAACC
B14: VOR1 (VT2-SA OR1) (dsDNA)
DNA 1: GGTTATTATGGAAGTACATATTGTATTTTGCAAGTGC
DNA 2: GCACTTGCAAAATACAATATGTACTTCCATAATAACC
B15: LOR3 (lambda OR3) (dsDNA)
DNA 1: GGTTATTATGGTATCACCGCAAGGGATATGCAAGTGC
DNA 2: GCACTTGCATATCCCTTGCGGTGATACCATAATAACC
B16: LOL1 (lambda OL1) (dsDNA)
DNA 1: GGTTATTATGGTATCACCGCCAGTGGTATGCAAGTGC
DNA 2: GCACTTGCATACCACTGGCGGTGATACCATAATAACC
B17: LOL2 (lambda OL2) (dsDNA)
DNA 1: GGTTATTATGGCAACACCGCCAGAGATATGCAAGTGC
DNA 2: GCACTTGCATATCTCTGGCGGTGTTGCCATAATAACC
B18: SOR3 (Stx2I OR3) (dsDNA)
DNA 1: GGTTATTATGGGGGCGAATTCTTTGCGCTGCAAGTGC
DNA 2: GCACTTGCAGCGCAAAGAATTCGCCCCCATAATAACC

T1 sequence (P03034 whole entry): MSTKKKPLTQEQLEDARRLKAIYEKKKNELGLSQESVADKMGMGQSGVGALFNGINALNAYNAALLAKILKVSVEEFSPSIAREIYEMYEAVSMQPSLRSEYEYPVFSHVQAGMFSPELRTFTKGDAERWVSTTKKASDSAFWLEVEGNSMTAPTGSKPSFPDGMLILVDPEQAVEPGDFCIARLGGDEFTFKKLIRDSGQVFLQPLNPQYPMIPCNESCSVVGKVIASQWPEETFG

One data set concerns the target T1, lambda CI repressor (Bacteriophage lambda, UniProt P03034 1-237). Description: EMSA; apparent Kd; EMSA: 10 mM HEPES, 150 mM NaCl, pH 7.4; 50 nM DNA, 0.4-40 uM CI; 20 min at room temperature; 10% polyacrylamide gel, 1x TBE pH 8.3, SYBR Safe stain. To be noted: protein: recombinant; tags: His-tag, TEV cleavage site with linker (pET 29b+); chain copies: 2; label: none (SYBR Safe stain). (In general: Mobility shift assays separate free from complexed probe on a gel.)
In the case of B1, the Kd was 7.27 ± 2.39 µM. On the same count and under the same terms, next, B2: 3.68 ± 0.47 µM; B3: 1.21 ± 0.08 µM. Consider B4, for which the Kd was found to be 0.35 ± 0.03 µM. Still for that read-out and setting: next, B5: 7.67 ± 2.62 µM; B6: 6.39 ± 2.75 µM; B7: 1.55 ± 0.29 µM.

B8: the Kd is 4.41 ± 0.99 µM. Same read-out and setting: the figure for B9 is 5.37 ± 1.16 µM.

Regarding B10, the Kd is 7.11 ± 1.27 µM.

With B11, the Kd amounted to 3.67 ± 0.1 µM. On the same count and under the same terms, next, B12: 4.02 ± 0.16 µM; B13: 4.26 ± 0.27 µM.

For B14, the Kd came out at 5.15 ± 2.39 µM. Turning to B15, the Kd stood at 3.07 ± 1.13 µM.

Turning to B16, the Kd turned out to be 0.21 ± 0.02 µM. Same read-out and setting: next, B17: 1.5 ± 0.17 µM.

In another data set the target is T1, lambda CI repressor. Description: EMSA; apparent Kd; text gives error 3.10; EMSA: 10 mM HEPES, 150 mM NaCl, pH 7.4; 50 nM DNA, 0.4-40 uM CI; 20 min at room temperature; 10% polyacrylamide gel, 1x TBE pH 8.3, SYBR Safe stain. The note with it: protein: recombinant; tags: His-tag, TEV cleavage site with linker (pET 29b+); chain copies: 2; label: none (SYBR Safe stain).
For B18, the Kd was 7.68 ± 3.09 µM.
